This passage reports Kd results from patent publication US20250092106A1 (University of California, published 2025).

The target of this assay is T1, Recombinant soluble integrin αvβ3 (UniProt P06756 31-992; P05106 27-718).
T1 construct: Soluble heterodimer made 'as described [22]'; also called soluble αvβ3; αvβ3 protein
Description: SPR; soluble αvβ3 immobilized on CM5 chip, HBD as analyte, 1 mM Mn2+. A general note: SPR reads the build-up and loss of mass on a sensor chip optically.

T1 sequence (P06756 31-992, chain 1 of 2): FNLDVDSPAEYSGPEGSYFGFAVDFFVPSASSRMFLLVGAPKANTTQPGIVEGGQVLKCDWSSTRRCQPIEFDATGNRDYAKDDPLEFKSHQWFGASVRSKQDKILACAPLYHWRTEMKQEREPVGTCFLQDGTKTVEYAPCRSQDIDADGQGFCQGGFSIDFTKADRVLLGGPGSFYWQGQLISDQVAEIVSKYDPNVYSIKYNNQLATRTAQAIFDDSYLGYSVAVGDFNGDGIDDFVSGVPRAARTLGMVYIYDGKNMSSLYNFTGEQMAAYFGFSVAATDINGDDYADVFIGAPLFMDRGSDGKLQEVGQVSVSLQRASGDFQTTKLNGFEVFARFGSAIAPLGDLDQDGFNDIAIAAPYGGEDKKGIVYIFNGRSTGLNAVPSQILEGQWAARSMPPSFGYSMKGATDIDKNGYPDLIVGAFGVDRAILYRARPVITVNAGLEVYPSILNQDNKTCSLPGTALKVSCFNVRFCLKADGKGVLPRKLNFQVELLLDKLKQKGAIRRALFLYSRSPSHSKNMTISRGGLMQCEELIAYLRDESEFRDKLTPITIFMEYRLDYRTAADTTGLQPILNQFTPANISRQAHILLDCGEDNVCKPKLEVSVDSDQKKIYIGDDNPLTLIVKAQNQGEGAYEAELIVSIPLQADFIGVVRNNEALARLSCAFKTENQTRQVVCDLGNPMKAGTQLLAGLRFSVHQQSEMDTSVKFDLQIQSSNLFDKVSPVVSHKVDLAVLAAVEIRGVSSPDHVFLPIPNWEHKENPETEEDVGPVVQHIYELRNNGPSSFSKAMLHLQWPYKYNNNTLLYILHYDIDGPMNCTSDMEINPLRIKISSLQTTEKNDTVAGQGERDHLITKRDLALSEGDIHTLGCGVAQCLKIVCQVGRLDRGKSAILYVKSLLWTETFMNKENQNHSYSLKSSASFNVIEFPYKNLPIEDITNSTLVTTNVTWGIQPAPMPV
T1 sequence (P05106 27-718, chain 2 of 2): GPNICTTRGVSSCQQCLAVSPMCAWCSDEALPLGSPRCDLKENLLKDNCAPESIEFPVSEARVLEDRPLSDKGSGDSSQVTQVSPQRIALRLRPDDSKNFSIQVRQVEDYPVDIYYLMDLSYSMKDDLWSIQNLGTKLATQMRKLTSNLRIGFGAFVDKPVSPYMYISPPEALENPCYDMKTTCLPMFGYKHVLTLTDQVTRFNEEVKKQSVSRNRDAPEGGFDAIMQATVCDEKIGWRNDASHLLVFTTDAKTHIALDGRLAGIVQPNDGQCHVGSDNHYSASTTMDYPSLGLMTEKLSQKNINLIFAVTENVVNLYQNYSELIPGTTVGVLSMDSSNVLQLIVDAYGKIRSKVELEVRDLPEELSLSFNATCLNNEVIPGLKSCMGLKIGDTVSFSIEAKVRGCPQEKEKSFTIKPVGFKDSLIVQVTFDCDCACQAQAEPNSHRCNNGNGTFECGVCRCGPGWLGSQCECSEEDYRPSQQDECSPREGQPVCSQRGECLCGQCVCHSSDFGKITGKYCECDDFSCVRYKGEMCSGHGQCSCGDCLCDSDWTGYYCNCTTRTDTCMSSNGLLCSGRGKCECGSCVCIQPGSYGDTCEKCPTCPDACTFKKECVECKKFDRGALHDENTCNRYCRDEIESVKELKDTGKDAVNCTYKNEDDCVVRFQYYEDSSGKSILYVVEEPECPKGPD

B1: VEGF165 heparin-binding domain (HBD, residues 111-165), wild type (ligand)
chain: QALARASGRGGRVARRGAEESGPPHSPSRRGSASRAGPGRASETMNFLLSWVHWS
The Kd is the concentration at which binding is half-saturated. As to B1, the Kd is 470 nM.
